In article PMC3531251, “Yeast importin-β is required for nuclear import of the Mig2 repressor” (BMC Cell Biology, 2012):

T1: Kap60 (importin-α), purified from E. coli (S. cerevisiae, UniProt Q02821 1-542)
T1 construct: also called purified Kap60; GST-Kap60 (before thrombin); source: E. coli BL21(DE3) pLysS, purified on glutathione-Sepharose, released with thrombin
T1 sequence (looked up): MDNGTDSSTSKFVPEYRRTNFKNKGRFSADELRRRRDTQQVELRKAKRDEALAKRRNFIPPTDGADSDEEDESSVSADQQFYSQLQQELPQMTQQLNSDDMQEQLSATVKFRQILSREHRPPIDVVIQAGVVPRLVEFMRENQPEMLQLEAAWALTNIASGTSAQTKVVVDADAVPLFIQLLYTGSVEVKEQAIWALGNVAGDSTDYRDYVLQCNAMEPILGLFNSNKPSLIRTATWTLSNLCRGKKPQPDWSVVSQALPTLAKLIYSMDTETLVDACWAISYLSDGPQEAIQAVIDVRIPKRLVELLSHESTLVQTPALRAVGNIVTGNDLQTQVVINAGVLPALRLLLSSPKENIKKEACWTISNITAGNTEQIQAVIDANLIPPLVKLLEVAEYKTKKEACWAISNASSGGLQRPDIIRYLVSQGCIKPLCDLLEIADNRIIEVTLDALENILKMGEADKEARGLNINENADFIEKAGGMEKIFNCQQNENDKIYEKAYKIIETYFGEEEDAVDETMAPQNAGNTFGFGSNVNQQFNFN

B1: GST-Mig2nls1 fusion protein (natural protein)
chain: not shown
notes: Held on glutathione-Sepharose beads in the pull-downs; also called Mig2nls1-GST; MIG2K32AK33AR37A; source: E. coli BL21(DE3) pLysS, purified on glutathione-Sepharose
B2: GST-Mig2 fusion protein (natural protein)
chain: not shown
notes: Mig2 of Saccharomyces cerevisiae, PCR fragment cloned in the SalI site of pGEX-4T-1; also called Mig2-GST; pGEX/MIG2; source: E. coli BL21(DE3) pLysS, purified on glutathione-Sepharose

Molecular target: T1, Kap60 (importin-α), purified from E. …
Assay: pull-down; GST fusion on glutathione-Sepharose incubated with purified Kap60 and/or Kap95 (thrombin-released), no Gsp1; 1 h at 4°C in PBS; blot with anti-Kap60 or anti-Kap95
Details: both partners purified

Binder | binding result
B1 | binds
B2 | binds
